Where “and” joins values, the source holds several entries; their conditions need not be identical. Equal entries are not always repeated.
Experiment: Translocation of ^125I-labeled peptide from mouse intestine loop into blood and organs (Example 1)
Type: in vivo, BALB/c mice
Details: for recovered cpm/mouse / blood 15′, total cpm in the blood / blood 30′, total cpm in the blood / blood 60′, total cpm in the blood / blood/injected cpm (%), 15′ / blood/injected cpm (%), 30′ / blood/injected cpm (%), 60′ / recovered/injected cpm (%) / Epididymal fat, cpm recovered / brain, cpm recovered / kidney, cpm recovered / liver, cpm recovered / lungs, cpm recovered: Table 2 formulation (PE 6,200), intestinal loop, 224,160 cpm injected per mouse; for recovered cpm/mouse: blood 60′ plus organs; for blood 15′, total cpm in the blood / blood 30′, total cpm in the blood / blood 60′, total cpm in the blood: calculated from 50 μl sample assuming 2 ml blood; for Epididymal fat, cpm recovered / brain, cpm recovered / kidney, cpm recovered / liver, cpm recovered / lungs, cpm recovered: organ removed after 60 min
Source text: The tested peptide, representing a penetrating peptide and a radio-labeled probe in a contiguous construct of SEQ ID NO 3 and SEQ ID NO 17, hereby named IBW 002 (Novetide, lot 40139-45, sequence: Ac-NYYDITLALAGICQSARLVQQLAGGGKGGK-NH2 (SEQ ID NO:22), was ^125I-labeled using the Bolton Hunter Reagent (Biochem. J. 133:529-39 (1973)). The labeled peptide was loaded on a Sephadex G10 column, washed with phosphate buffer and eluted with 3M Tiocyanate in DDW+50% n-butanol. The peak, containing 6 fractions, was kept and used for in vivo experiments.
Four male BALB/c mice, 9-10 weeks old, were deprived of food, 18 hours prior to the experiment.
The mice were anesthetized by i.p. injection of 0.05 ml of a mixture of 0.15 ml xylazine+0.85 ml of ketamin. A 2 cm long incision was made along the center of the abdomen, through the skin and abdominal wall. An intestine loop was gently pulled out through the incision and placed on wet gauze beside the animal. The loop remained intact through the entire procedure and was kept wet during the whole time. The tested compound was injected into the loop, 0.2 ml/ mouse, containing around 200,000 cpm, using a 26G needle. Fifteen minutes post injection the tip of the tail was cut and a 50 μl blood sample was drawn into a glass capillary. This was repeated 30 and 60 minutes post injection. The animals were subsequently sacrificed. The following organs were removed: epididymal fat, kidneys, liver, lungs and brain. Radioactivity in each organ and in blood samples was counted. A 5 μl sample of the injected solution was counted to determine the total injected cpm per mouse.
The total radioactive labeling injected per mouse was 224,160 cpm. Total cpm in the blood was calculated based on the 50 μl blood sample drawn out at different time points post injection, in the assumption that total blood volume of each mouse is 2 ml.

[1] = individual mice, listed as 125I-IBW-002

What does the source list for “Ac-NYYDITLALAGICQSARLVQQLAGGGKGGK-NH2 (Ac-NYYDITLALAGICQSARLVQQLAGGGKGGK-NH2; also: 125I label) [IBW-002, ^125I-labeled using the Bolton Hunter Reagent for in vivo tests]”?
recovered cpm/mouse [1]: 41,440 cpm and 66,525 cpm and 61,642 cpm and 82,325 cpm; recovered cpm/mouse (mean of 4 mice): 62,983 cpm; blood 15′, total cpm in the blood [1]: 37,080 cpm and 68,960 cpm and 62,280 cpm and 80,280 cpm; blood 30′, total cpm in the blood [1]: 36,120 cpm and 60,680 cpm and 52,320 cpm and 70,840 cpm; blood 60′, total cpm in the blood [1]: 29,720 cpm and 47,800 cpm and 44,000 cpm and 59,720 cpm; blood 15′, total cpm in the blood (mean of 4 mice): 62,150 cpm; blood 30′, total cpm in the blood (mean of 4 mice): 54,990 cpm; blood 60′, total cpm in the blood (mean of 4 mice): 45,310 cpm; blood/injected cpm (%), 15′ [1]: 16.54% and 30.76% and 27.78% and 35.81%; blood/injected cpm (%), 30′ [1]: 16.11% and 27.07% and 23.34% and 31.60%; blood/injected cpm (%), 60′ [1]: 13.26% and 21.32% and 19.63% and 26.64%; recovered/injected cpm (%) [1]: 18.49% and 29.68% and 27.50% and 36.73%; blood/injected cpm (%), 15′ (mean of 4 mice): 27.73%; blood/injected cpm (%), 30′ (mean of 4 mice): 24.53%; blood/injected cpm (%), 60′ (mean of 4 mice): 20.21%; recovered/injected cpm (%) (mean of 4 mice): 28.10%; Epididymal fat, cpm recovered [1]: 547 cpm and 869 cpm and 973 cpm and 1,174 cpm; brain, cpm recovered [1]: 138 cpm and 190 cpm and 202 cpm and 301 cpm; kidney, cpm recovered [1]: 4,068 cpm and 6,614 cpm and 6,400 cpm and 7,650 cpm; liver, cpm recovered [1]: 6,102 cpm and 9,709 cpm and 8,718 cpm and 11,674 cpm; lungs, cpm recovered [1]: 865 cpm and 1,343 cpm and 1,349 cpm and 1,806 cpm; Epididymal fat, cpm recovered (mean of 4 mice): 891 cpm; brain, cpm recovered (mean of 4 mice): 208 cpm; kidney, cpm recovered (mean of 4 mice): 6,183 cpm; liver, cpm recovered (mean of 4 mice): 9,051 cpm; lungs, cpm recovered (mean of 4 mice): 1,341 cpm; time at which the relative amount in the blood peaked (post-intestinal administration, blood sampled at 15, 30 and 60 min, Table 2 formulation): 15 min

— patent publication US20050215478A1, “Amino acid sequences capable of facilitating penetration across a biological barrier” (priority 2002, published 2005)
